For 1 substance, stoichiometry N results are on record in publication PMC6640674.

This test has as its target BPSL1626 (Burkholderia pseudomallei strain K96423) (UniProt Q63UH6). As to the kind of experiment: crystal structure.

What is called stoichiometry N is a count of units in the complex or per binding partner.

“BPSL1626 (from UniProt Q63UH6 26-176) (natural protein)” gave a stoichiometry N of 2.
